Measurements: paper doi:10.1101/520460
Read-outs that look alike come from different tables or passages of the source.

Experiments:
[1] = target: paclitaxel stabilized microtubules (polymerized bovine brain tubulin) (bovine) (UniProt Q6B856); assay: co-sedimentation
[2] = target: paclitaxel stabilized microtubules (polymerized bovine brain tubulin) (bovine) (UniProt Q6B856); assay: co-sedimentation; remark: listed apart in the source
[3] = target: paclitaxel stabilized microtubules (polymerized bovine brain tubulin) (bovine) (UniProt Q6B856); assay: co-sedimentation; remark: listed apart in the source
[4] = target: subtilisin-treated microtubules (C-terminal tails of α- and β-tubulin removed) (bovine) (UniProt Q6B856)
Sequence of subtilisin-treated microtubules (C-terminal tails of α- and β-tubulin removed) (bovine) (Q6B856 whole entry, looked up): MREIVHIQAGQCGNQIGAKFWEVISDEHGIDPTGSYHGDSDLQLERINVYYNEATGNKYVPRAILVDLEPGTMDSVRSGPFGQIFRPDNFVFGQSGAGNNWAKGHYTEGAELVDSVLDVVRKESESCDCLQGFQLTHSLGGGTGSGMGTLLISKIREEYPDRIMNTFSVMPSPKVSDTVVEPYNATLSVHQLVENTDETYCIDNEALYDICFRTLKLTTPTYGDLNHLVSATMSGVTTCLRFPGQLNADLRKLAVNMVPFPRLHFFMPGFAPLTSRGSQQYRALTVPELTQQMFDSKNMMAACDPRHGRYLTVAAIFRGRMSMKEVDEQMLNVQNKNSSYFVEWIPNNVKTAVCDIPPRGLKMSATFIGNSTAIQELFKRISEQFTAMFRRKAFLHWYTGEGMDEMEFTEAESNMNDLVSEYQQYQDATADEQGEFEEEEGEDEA

Sequence of paclitaxel stabilized microtubules (polymerized bovine brain tubulin) (bovine) (Q6B856 whole entry, looked up): as above

Kd [1]: 110 nM
Kd [2]: 500 nM
Kd [3]: 160 nM
K0.5,S-MT of the steady-state ATPase on subtilisin treated microtubules [4]: 1.1 µM
Substance: catalytic domain plus the putative neck linker of human kinesin-like DNA-binding protein (KID), Gly5-Leu379 (domain or fragment)
